T1: recombinant human OX40/His fusion protein (Novoprotein, CB17) (human, UniProt P43489 29-216)
T1 construct: Bought protein
T1 sequence: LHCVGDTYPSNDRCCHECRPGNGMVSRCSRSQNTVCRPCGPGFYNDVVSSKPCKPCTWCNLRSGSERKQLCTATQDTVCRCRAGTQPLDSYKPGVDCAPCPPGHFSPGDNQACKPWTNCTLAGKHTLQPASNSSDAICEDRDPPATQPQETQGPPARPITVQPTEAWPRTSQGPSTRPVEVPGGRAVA


molecular target: T1, recombinant human OX40/His fusion …; assay: BLI (Octet RED96), antibody on AHC sensor, OX40/His as analyte, test group 1
Protocol: (§1) All 17 antibodies in Table 4 were expressed by transient transfection of HEK293 cell, purified by Protein A chromatography, and assayed for and ranked by dissociation rate constant (koff). Briefly, antibodies binding affinities and kinetics were characterized by Octet® RED96 biolayer interferometry (Pall FortéBio LLC). Antibodies were captured by Anti-hIgG Fc Capture (AHC) Biosensors (Pall) at a concentration of 100 nM for 120 seconds. After that, sensors were dipped into running buffer (1× pH 7.2 PBS, 0.05% Tween 20, 0.1% BSA) for 60 seconds to check the baseline, then dipped into recombinant human OX40/His fusion protein (Novoprotein, CB17) at assigned concentration for 200 seconds to measure binding, followed by dipped into running buffer for 600 seconds for dissociation. The assay was conducted in four test groups (as listed in Table 5) all containing the EM1007-044c chimeric antibody as the basis for normalization. The association and dissociation curves were fitted to a 1:1 Langmuir binding model using ForteBio Data Analysis software (Pall) to obtain the off-rate constants as shown in Table 5 below. The off-rate of each antibody was compared to that of the EM1007-mAb044c chimeric antibody in the same test group obtained in parallel to produce the corresponding off-rate ratio, serving as a normalized index. […]

| Binder | Normalized Index (off-rate ratio to EM1007-mAb044c) [%] | koff [s⁻¹] |
| --- | --- | --- |
| HuEM1007-044-6 (antibody, human IgG1, kappa, L234A L235A, V domains shown, Humanized anti-OX40, human IgG1 LALA / kappa) VH: EVQLVQSGAEVKKPGSSVKVSCKASGHTFSSSWMNWVRQAPGQGLEWMGRIYPGDEITNYNGKFKDRVTITADKSTSTAYMELSSLRSEDTAVYYCARDLLMPYWGQGTLVTVSS VL: DIVMTQTPLSLPVTPGEPASISCRSSKSLLYSNGITYLYWYLQKPGQSPQLLIYQMSNLAPGVPDRFSSSGSGTDFTLKISRVEAEDVGVYYCAQNLELPFTFGQGTKLEIKR | 331 | 0.00111 |
| HuEM1007-044-5 (antibody, human IgG1, kappa, L234A L235A, V domains shown, Humanized anti-OX40, human IgG1 LALA / kappa) VH: EVQLVQSGAEVKKPGSSVKVSCKASGGTFSSSWMNWVRQAPGQGLEWMGRIYPGDEITNYNGKFKDRVTITADKSTSTAYMELSSLRSEDTAVYYCARDLLMPYWGQGTLVTVSS VL: DIVMTQTPLSLPVTPGEPASISCRSSKSLLYSNGITYLYWYLQKPGQSPQLLIYQMSNLAPGVPDRFSSSGSGTDFTLKISRVEAEDVGVYYCAQNLELPFTFGQGTKLEIKR | 243 | 0.000818 |
| HuEM1007-044-2 (antibody, human IgG1, kappa, L234A L235A, V domains shown, Humanized anti-OX40, human IgG1 LALA / kappa) VH: EVQLVQSGAEVKKPGSSVKVSCKASGHTFSSSWMNWVRQAPGQGLEWMGRIYPGDEITNYNGKFKDRVTITADKSTSTAYMELSSLRSEDTAVYYCARDLLMPYWGQGTLVTVSS VL: DIVMTQTPLSLPVTPGEPASISCRSSKSLLYSNGITYLYWYLQKPGQSPQLLIYQMSNLAPGVPDRFSGSGSGTDFTLKISRVEAEDVGVYYCAQNLELPFTFGQGTKLEIKR | 281 | 0.000944 |

Further lines, results first:

| Normalized Index (off-rate ratio to EM1007-mAb044c) [%] | koff [s⁻¹] | Binder |
| --- | --- | --- |
| 255 | 0.000859 | HuEM1007-044-3 (antibody, human IgG1, kappa, L234A L235A, V domains shown, Humanized anti-OX40, human IgG1 LALA / kappa) VH: EVQLVQSGAEVKKPGSSVKVSCKASGHTFSSSWMNWVRQAPGQGLEWIGRIYPGDEITNYNGKFKDRVTLTADKSTSTAYMELSSLRSEDTAVYYCARDLLMPYWGQGTLVTVSS VL: DIVMTQTPLSLPVTPGEPASISCRSSKSLLYSNGITYLYWYLQKPGQSPQLLIYQMSNLAPGVPDRFSGSGSGTDFTLKISRVEAEDVGVYYCAQNLELPFTFGQGTKLEIKR |
| 306 | 0.00103 | HuEM1007-044-1 (antibody, human IgG1, kappa, L234A L235A, V domains shown, Humanized anti-OX40, human IgG1 LALA / kappa) VH: EVQLVQSGAEVKKPGSSVKVSCKASGGTFSSSWMNWVRQAPGQGLEWMGRIYPGDEITNYNGKFKDRVTITADKSTSTAYMELSSLRSEDTAVYYCARDLLMPYWGQGTLVTVSS VL: DIVMTQTPLSLPVTPGEPASISCRSSKSLLYSNGITYLYWYLQKPGQSPQLLIYQMSNLAPGVPDRFSGSGSGTDFTLKISRVEAEDVGVYYCAQNLELPFTFGQGTKLEIKR |

molecular target: T1, recombinant human OX40/His fusion …; assay: BLI (Octet RED96), antibody on AHC sensor, OX40/His as analyte, test group 2
Protocol: as §1

| Binder | Normalized Index (off-rate ratio to EM1007-mAb044c) [%] | koff [s⁻¹] |
| --- | --- | --- |
| EM1007-mAb044c-9 (antibody, human IgG1, kappa, L234A L235A, V domains shown) VH: QVQLQQSGPELVKPGASVTISCKASGHAFSSSWMNWVKQRPGKGLEWIGRIYPGDEITNYNAKFKDKATLTADKSSSTAYMQLSSLTFEDSAVYFCARDLLMPYWGQGTLVTVSA VL: DIVMTQTAFSNPVTLGTSASISCRSSKSLLYSNGITYLYWYLQKPGQSPHLLIYQMSNLAPGVPDRFSSSGSGTDFTLRISRVEAEDVGIYYCAQNLELPFTFGSGTKLEIKR | 97 | 0.000309 |
| EM1007-mAb044c-12 (antibody, human IgG1, kappa, L234A L235A, V domains shown) VH: QVQLQQSGPELVKPGASVTISCKASGHAFSSSWMNWVKQRPGKGLEWIGRIYPGDEITNYNGKFKDKATLTADKSSSTAYMQLSSLTFEDSAVYFCARDLLMPYWGQGTLVTVSA VL: DIVMTQTPLSLPVTPGEPASISCRSSKSLLYSNGITYLYWYLQKPGQSPQLLIYQMSNLAPGVPDRFSGSGSGTDFTLKISRVEAEDVGVYYCAQNLELPFTFGQGTKLEIKR | 255 | 0.00081 |

The next lines start with the values.

| Normalized Index (off-rate ratio to EM1007-mAb044c) [%] | koff [s⁻¹] | Binder |
| --- | --- | --- |
| 343 | 0.00109 | HuEM1007-044-7 (antibody, human IgG1, kappa, L234A L235A, V domains shown, Humanized anti-OX40, human IgG1 LALA / kappa) VH: EVQLVQSGAEVKKPGSSVKVSCKASGHTFSSSWMNWVRQAPGQGLEWIGRIYPGDEITNYNGKFKDRVTLTADKSTSTAYMELSSLRSEDTAVYYCARDLLMPYWGQGTLVTVSS VL: DIVMTQTPLSLPVTPGEPASISCRSSKSLLYSNGITYLYWYLQKPGQSPQLLIYQMSNLAPGVPDRFSSSGSGTDFTLKISRVEAEDVGVYYCAQNLELPFTFGQGTKLEIKR |
| 100 | 0.000317 | EM1007-mAb044c-11 (antibody, human IgG1, kappa, L234A L235A, V domains shown) VH: QVQLQQSGPELVKPGASVTISCKASGHAFSSSWMNWVKQRPGKGLEWIGRIYPGDEITNYNAKFKDKATLTADKSSSTAYMQLSSLTFEDSAVYFCARDLLMPYWGQGTLVTVSA VL: DIVMTQTAFSNPVTLGTSASISCRSSKSLLYSNAITYLYWYLQKPGQSPHLLIYQMSNLAPGVPDRFSSSGSGTDFTLRISRVEAEDVGIYYCAQNLELPFTFGSGTKLEIKR |
| 317 | 0.00101 | HuEM1007-044-8 (antibody, human IgG1, kappa, L234A L235A, V domains shown, Humanized anti-OX40, human IgG1 LALA / kappa) VH: EVQLVQSGAEVKKPGSSVKVSCKASGHTFSSSWMNWVKQAPGKGLEWIGRIYPGDEITNYNGKFKDKVTLTADKSTSTAYMELSSLRSEDTAVYYCARDLLMPYWGQGTLVTVSS VL: DIVMTQTPLSLPVTPGEPASISCRSSKSLLYSNGITYLYWYLQKPGQSPQLLIYQMSNLAPGVPDRFSSSGSGTDFTLKISRVEAEDVGVYYCAQNLELPFTFGQGTKLEIKR |
| 94 | 0.000299 | EM1007-mAb044c-10 (antibody, human IgG1, kappa, L234A L235A, V domains shown) VH: QVQLQQSGPELVKPGASVTISCKASGHAFSSSWMNWVKQRPGKGLEWIGRIYPGDEITNYNGKFKDKATLTADKSSSTAYMQLSSLTFEDSAVYFCARDLLMPYWGQGTLVTVSA VL: DIVMTQTAFSNPVTLGTSASISCRSSKSLLYSNAITYLYWYLQKPGQSPHLLIYQMSNLAPGVPDRFSSSGSGTDFTLRISRVEAEDVGIYYCAQNLELPFTFGSGTKLEIKR |

molecular target: T1, recombinant human OX40/His fusion …; assay: BLI (Octet RED96), antibody on AHC sensor, OX40/His as analyte, test group 3
Protocol: as §1

| Normalized Index (off-rate ratio to EM1007-mAb044c) [%] | koff [s⁻¹] | Binder |
| --- | --- | --- |
| 486 | 0.00148 | HuEM1007-044-4 (antibody, human IgG1, kappa, L234A L235A, V domains shown, Humanized anti-OX40, human IgG1 LALA / kappa) VH: EVQLVQSGAEVKKPGSSVKVSCKASGHTFSSSWMNWVKQAPGKGLEWIGRIYPGDEITNYNGKFKDKVTLTADKSTSTAYMELSSLRSEDTAVYYCARDLLMPYWGQGTLVTVSS VL: DIVMTQTPLSLPVTPGEPASISCRSSKSLLYSNGITYLYWYLQKPGQSPQLLIYQMSNLAPGVPDRFSGSGSGTDFTLKISRVEAEDVGVYYCAQNLELPFTFGQGTKLEIKR |
| 427 | 0.0013 | EM1007-mAb044c-13 (antibody, human IgG1, kappa, L234A L235A, V domains shown) VH: EVQLVQSGAEVKKPGSSVKVSCKASGGTFSSSWMNWVRQAPGQGLEWMGRIYPGDEITNYNGKFKDRVTITADKSTSTAYMELSSLRSEDTAVYYCARDLLMPYWGQGTLVTVSS VL: DIVMTQTAFSNPVTLGTSASISCRSSKSLLYSNGITYLYWYLQKPGQSPHLLIYQMSNLAPGVPDRFSSSGSGTDFTLRISRVEAEDVGIYYCAQNLELPFTFGSGTKLEIKR |

molecular target: T1, recombinant human OX40/His fusion …; assay: BLI (Octet RED96), antibody on AHC sensor, OX40/His as analyte, test group 4
Protocol: as §1

| Normalized Index (off-rate ratio to EM1007-mAb044c) [%] | koff [s⁻¹] | Binder |
| --- | --- | --- |
| 92 | 0.000256 | EM1007-mAb044c-17 (antibody, human IgG1, kappa, L234A L235A, V domains shown) VH: EVQLQQSGAEVKKPGSSVKVSCKASGHAFSSSWMNWVKQRPGKGLEWIGRIYPGDEITNYNAKFKDKATLTADKSTSTAYMELSSLRSEDTAVYYCARDLLMPYWGQGTLVTVSS VL: DIVMTQTAFSNPVTLGTSASISCRSSKSLLYSNAITYLYWYLQKPGQSPHLLIYQMSNLAPGVPDRFSSSGSGTDFTLRISRVEAEDVGIYYCAQNLELPFTFGSGTKLEIKR |
| 340 | 0.000949 | EM1007-mAb044c-15 (antibody, human IgG1, kappa, L234A L235A, V domains shown) VH: EVQLVQSGAEVKKPGSSVKVSCKASGGTFSSSWMNWVRQRPGKGLEWMGRIYPGDEITNYNAKFKDRVTITADKSTSTAYMELSSLRSEDTAVYYCARDLLMPYWGQGTLVTVSS VL: DIVMTQTAFSNPVTLGTSASISCRSSKSLLYSNAITYLYWYLQKPGQSPHLLIYQMSNLAPGVPDRFSSSGSGTDFTLRISRVEAEDVGIYYCAQNLELPFTFGSGTKLEIKR |
| 341 | 0.000952 | HuEM1007-044-14 (antibody, human IgG1, kappa, L234A L235A, V domains shown, Humanized anti-OX40, human IgG1 LALA / kappa) VH: EVQLVQSGAEVKKPGSSVKVSCKASGGTFSSSWMNWVRQRPGKGLEWMGRIYPGDEITNYNAKFKDRVTITADKSTSTAYMELSSLRSEDTAVYYCARDLLMPYWGQGTLVTVSS VL: DIVMTQTPLSLPVTPGEPASISCRSSKSLLYSNAITYLYWYLQKPGQSPQLLIYQMSNLAPGVPDRFSSSGSGTDFTLKISRVEAEDVGVYYCAQNLELPFTFGQGTKLEIKR |

From patent US20250282881A1 (SHANGHAI EPIMAB BIOTHERAPEUTICS, published 2025)
